Assay [1] has as its target T1, GST-His-Sfmbt-SAM_(1137-1220) (Drosophila, UniProt Q9VK33 1137-1220).
T1 sequence (looked up): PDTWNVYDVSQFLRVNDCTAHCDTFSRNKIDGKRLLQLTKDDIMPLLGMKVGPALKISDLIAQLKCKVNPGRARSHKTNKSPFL
Description: pull-down.

A further assay has as its target T2, Sfmbt-SAM_(1137-1220) (Drosophila, UniProt Q9VK33 1137-1220).
T2 sequence (looked up): T1 sequence (looked up)
As to the kind of experiment: SEC. On the technique in general: SEC sorts molecules by how far they enter the pores of the column.

B1: His-Scm-SAM_(803-877)^L855E/L859E (domain or fragment, Drosophila, UniProt Q9VHA0 803-877, looked up)
chain: PIDWTIEEVIQYIESNDNSLAVHGDLFRKHEIDGKALLLLNSEMMMKYMGLKEGPAEKICNLVNKVNGRRNNLAL
As to B1, the binding result in assay [1] is listed as “binds”.

B2: Scm-SAM_(803-877)^L855E/L859E (coexpressed with Sfmbt-SAM) (domain or fragment, Drosophila, UniProt Q9VHA0 803-877, looked up)
chain: B1 chain
Consider B2, for which the binding result with Sfmbt-SAM_(1137-1220) is on record as “binds”.

These data come from paper PMC4863741 (Genes & Development, 2016).
